Measurements as given in patent US11814435B2, “Therapeutic antibodies and their uses” (PFIZER INC., priority 2015, dated 2023).
Where a chain is given by its changes, count along the chain named. One block for each molecule: values may come before it.

Assays:
hBCMA (human BCMA) = biological target: T1, hBCMA (human BCMA) (Homo sapiens, UniProt Q02223); assay: Kinetics and affinity of hBCMA/human IgG interactions by SPR (Bio-Rad Proteon XPR36); assay type: binding; conditions: huBCMA, 37° C.
T1 sequence (Q02223 1-184): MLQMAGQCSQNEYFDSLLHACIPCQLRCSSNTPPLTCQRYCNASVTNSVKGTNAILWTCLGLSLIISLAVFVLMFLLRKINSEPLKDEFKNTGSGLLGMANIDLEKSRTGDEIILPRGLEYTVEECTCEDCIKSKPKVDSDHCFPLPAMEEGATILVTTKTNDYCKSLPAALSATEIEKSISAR
How it was run: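 First, antibodies are immobilized by amine coupling onto a GLC sensor chip at 25° C. Next, hBCMA is titrated from 0.08 to 50 nM in one cycle, each injection lasting two minutes, in BSA-supplemented HBS-T+ at 37° C. or 25° C. Finally, dissociation runs two hours before kinetic-titration fitting.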

cyBCMA = assay: Kinetics and affinity of cyBCMA/human IgG interactions by SPR (Bio-Rad Proteon XPR36); assay type: binding, cynomolgus; conditions: 37° C.

- ka (1/Ms) huBCMA @ 37° C. (hBCMA (human BCMA)): 3.68e+06 M⁻¹ s⁻¹
- kd (1/s) huBCMA @37° C. (hBCMA (human BCMA)): 0.00134 s⁻¹
- kd (1/s) cyBCMA @37° C. (cyBCMA): 0.00202 s⁻¹
B1: L3.PY/L1.PH/H3.AE: anti-BCMA antibody (antibody, V domains shown)
VH: EVQLLESGGGLVQPGGSLRLSCAASGFTFGSYAMTWVRQAPGKGLEWVSAISGSGGNTFYADSVKGRFTISRDNSKNTLYLQMNSLRAEDTAVYYCARVSPIAAEMDYWGQGTLVTVSS
VL: EIVLTQSPGTLSLSPGERATLSCRASQSVSPHYLAWYQQKPGQAPRLLIYGASSRATGIPDRFSGSGSGTDFTLTISRLEPEDFAVYYCQHYPYPPSFTFGQGTKVEIK
- ka (1/Ms) cyBCMA @ 37° C. (cyBCMA): 2.61e+06 M⁻¹ s⁻¹

- ka (1/Ms) huBCMA @ 37° C. (hBCMA (human BCMA)): 2.92e+06 M⁻¹ s⁻¹
- kd (1/s) huBCMA @37° C. (hBCMA (human BCMA)): 0.000906 s⁻¹
- kd (1/s) cyBCMA @37° C. (cyBCMA): 0.00232 s⁻¹
B2: L3.PY/L3.KY/H2.LT: anti-BCMA antibody (antibody, V domains shown)
VH: B1 VH with G53L, S54T, A104S, E105G
VL: B1 VL with P31S, H32S, Q90K, H91Y
- ka (1/Ms) cyBCMA @ 37° C. (cyBCMA): 1.82e+06 M⁻¹ s⁻¹

- ka (1/Ms) huBCMA @ 37° C. (hBCMA (human BCMA)): 3.65e+06 M⁻¹ s⁻¹
- kd (1/s) huBCMA @37° C. (hBCMA (human BCMA)): 0.00208 s⁻¹
- kd (1/s) cyBCMA @37° C. (cyBCMA): 0.00409 s⁻¹
B3: L3.PY/L3.KY/H2.QL: anti-BCMA antibody (antibody, V domains shown)
VH: B1 VH with S63Q, V64L, A104S, E105G
VL: B1 VL with P31S, H32S, Q90K, H91Y
- ka (1/Ms) cyBCMA @ 37° C. (cyBCMA): 2.75e+06 M⁻¹ s⁻¹

- ka (1/Ms) huBCMA @ 37° C. (hBCMA (human BCMA)): 3.3e+06 M⁻¹ s⁻¹
- kd (1/s) huBCMA @37° C. (hBCMA (human BCMA)): 0.000912 s⁻¹
- kd (1/s) cyBCMA @37° C. (cyBCMA): 0.00428 s⁻¹
B4: L3.PY/L3.KY/H3.YA: anti-BCMA antibody (antibody, V domains shown)
VH: B1 VH with A103Y, E105G
VL: B1 VL with P31S, H32S, Q90K, H91Y
- ka (1/Ms) cyBCMA @ 37° C. (cyBCMA): 1.84e+06 M⁻¹ s⁻¹

- ka (1/Ms) huBCMA @ 37° C. (hBCMA (human BCMA)): 3.19e+06 M⁻¹ s⁻¹
- kd (1/s) huBCMA @37° C. (hBCMA (human BCMA)): 0.000642 s⁻¹
- kd (1/s) cyBCMA @37° C. (cyBCMA): 0.00243 s⁻¹
B5: L3.PY/L3.KY/H2.DY: anti-BCMA antibody (antibody, V domains shown)
VH: B1 VH with S52D, G53Y, A104S, E105G
VL: B1 VL with P31S, H32S, Q90K, H91Y
- ka (1/Ms) cyBCMA @ 37° C. (cyBCMA): 1.96e+06 M⁻¹ s⁻¹

- ka (1/Ms) huBCMA @ 37° C. (hBCMA (human BCMA)): 2.07e+06 M⁻¹ s⁻¹
- kd (1/s) huBCMA @37° C. (hBCMA (human BCMA)): 0.00125 s⁻¹
- kd (1/s) cyBCMA @37° C. (cyBCMA): 0.0031 s⁻¹
B6: L3.PY/L3.KF/H2.QL: anti-BCMA antibody (antibody, V domains shown)
VH: B1 VH with S63Q, V64L, A104S, E105G
VL: B1 VL with P31S, H32S, Q90K, H91F
- ka (1/Ms) cyBCMA @ 37° C. (cyBCMA): 1.42e+06 M⁻¹ s⁻¹

- ka (1/Ms) huBCMA @ 37° C. (hBCMA (human BCMA)): 2.74e+06 M⁻¹ s⁻¹
- kd (1/s) huBCMA @37° C. (hBCMA (human BCMA)): 0.00182 s⁻¹
- kd (1/s) cyBCMA @37° C. (cyBCMA): 0.00368 s⁻¹
B7: L3.PY/L3.KF/H2.DY: anti-BCMA antibody (antibody, V domains shown)
VH: B1 VH with S52D, G53Y, A104S, E105G
VL: B1 VL with P31S, H32S, Q90K, H91F
- ka (1/Ms) cyBCMA @ 37° C. (cyBCMA): 2.08e+06 M⁻¹ s⁻¹

- ka (1/Ms) huBCMA @ 37° C. (hBCMA (human BCMA)): 1.96e+06 M⁻¹ s⁻¹
- kd (1/s) huBCMA @37° C. (hBCMA (human BCMA)): 0.00223 s⁻¹
- kd (1/s) cyBCMA @37° C. (cyBCMA): 0.00501 s⁻¹
B8: L3.PY/L3.KF/H2.YQ: anti-BCMA antibody (antibody, V domains shown)
VH: B1 VH with G53Y, S54Q, A104S, E105G
VL: B1 VL with P31S, H32S, Q90K, H91F
- ka (1/Ms) cyBCMA @ 37° C. (cyBCMA): 1.41e+06 M⁻¹ s⁻¹

- ka (1/Ms) huBCMA @ 37° C. (hBCMA (human BCMA)): 2.75e+06 M⁻¹ s⁻¹
- kd (1/s) huBCMA @37° C. (hBCMA (human BCMA)): 0.00191 s⁻¹
- kd (1/s) cyBCMA @37° C. (cyBCMA): 0.00413 s⁻¹
B9: L3.PY/L3.KF/H2.LT: anti-BCMA antibody (antibody, V domains shown)
VH: B1 VH with G53L, S54T, A104S, E105G
VL: B1 VL with P31S, H32S, Q90K, H91F
- ka (1/Ms) cyBCMA @ 37° C. (cyBCMA): 1.91e+06 M⁻¹ s⁻¹

- ka (1/Ms) huBCMA @ 37° C. (hBCMA (human BCMA)): 2.79e+06 M⁻¹ s⁻¹
- kd (1/s) huBCMA @37° C. (hBCMA (human BCMA)): 0.000649 s⁻¹
- kd (1/s) cyBCMA @37° C. (cyBCMA): 0.00192 s⁻¹
B10: L3.PY/L3.KY/H3.TAQ: anti-BCMA antibody (antibody, V domains shown)
VH: B1 VH with A97T, E105Q
VL: B1 VL with P31S, H32S, Q90K, H91Y
- ka (1/Ms) cyBCMA @ 37° C. (cyBCMA): 1.81e+06 M⁻¹ s⁻¹

- ka (1/Ms) huBCMA @ 37° C. (hBCMA (human BCMA)): 2.95e+06 M⁻¹ s⁻¹
- kd (1/s) huBCMA @37° C. (hBCMA (human BCMA)): 0.00099 s⁻¹
- kd (1/s) cyBCMA @37° C. (cyBCMA): 0.00774 s⁻¹
B11: L3.PY/L3.KY/H2.QR: anti-BCMA antibody (antibody, V domains shown)
VH: B1 VH with S63Q, V64R, A104S, E105G
VL: B1 VL with P31S, H32S, Q90K, H91Y
- ka (1/Ms) cyBCMA @ 37° C. (cyBCMA): 2.05e+06 M⁻¹ s⁻¹
